Source: patent US7030231 (University of California, dated 2006)

T1: inactive Ser805Ala His-tagged MT-SP1 protease domain
T1 chain: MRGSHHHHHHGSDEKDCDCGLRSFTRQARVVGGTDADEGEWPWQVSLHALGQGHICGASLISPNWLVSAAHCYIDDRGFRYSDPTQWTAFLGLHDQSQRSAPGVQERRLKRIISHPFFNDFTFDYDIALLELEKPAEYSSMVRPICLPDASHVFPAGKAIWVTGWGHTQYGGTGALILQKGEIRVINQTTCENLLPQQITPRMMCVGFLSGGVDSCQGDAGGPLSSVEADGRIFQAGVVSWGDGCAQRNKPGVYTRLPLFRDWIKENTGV

T2: His-tagged MT-SP1 protease domain (refolded, autoactivated, purified on p-aminobenzamidine resin) (human, UniProt Q9Y5Y6 615-855)
T2 construct: The split 596-614 / 615-855 follows from the stated construct limits and the stated cleavage site; also called His-MT-SP1 protease domain; MT-SP1 His-tagged protease domain
T2 sequence 1: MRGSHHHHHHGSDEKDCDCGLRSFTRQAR
T2 sequence 2: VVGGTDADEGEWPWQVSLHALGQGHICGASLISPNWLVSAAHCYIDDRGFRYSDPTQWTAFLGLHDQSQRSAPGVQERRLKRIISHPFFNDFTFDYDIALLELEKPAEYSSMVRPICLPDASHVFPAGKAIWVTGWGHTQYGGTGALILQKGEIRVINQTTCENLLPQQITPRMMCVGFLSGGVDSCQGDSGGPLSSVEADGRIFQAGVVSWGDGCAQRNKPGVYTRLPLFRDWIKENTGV

B1: His-tagged MT-SP1 protease domain (refolded, autoactivated, purified on p-aminobenzamidine resin) (protein)
chain 1: MRGSHHHHHHGSDEKDCDCGLRSFTRQAR
chain 2: T2 sequence 2
B2: ecotin M84R/M85R (other, E. coli (purified from E. coli), UniProt P23827 21-162, looked up)
chain: AESVQPLEKIAPYPQAEKGMKRQVIQLTPQEDESTLKVELLIGQTLEVDCNLHRLGGKLENKTLEGWGYDYYVFDKVSSPVSTRRACPDGKKEKKFVTAYLGDAGMLRYNSKLPIVVYTPDNVDVKYRVWKAEEKIDNAVVR
notes: They probably count on mature ecotin, not on the precursor with its signal peptide

Legend:
[1] = biological target: T1, inactive Ser805Ala His-tagged MT-SP1 …
[2] = biological target: T2, His-tagged MT-SP1 protease domain …; experiment: apparent Ki; inhibition of Spectrozyme tPA hydrolysis by 63 pM enzyme, fit to the tight-binding reversible inhibitor equation
Procedure: Ecotin and ecotin M84R/M85R were purified from *E. coli* as described in copending application Ser. Nos. 09/290,513 and 09/289,830, both filed on Apr. 12, 1999. Various concentrations of ecotin or ecotin M84R/M85R were incubated with the His-tagged serine protease domain in a total volume of 990 μL of buffer containing 50 mM NaCl, 50 mM Tris-HCl (pH 8.8), 0.01% Tween 20. 10 μL of Spectrozyme tPA was added, yielding a solution containing 100 μM substrate. The final enzyme concentration was 63 pM, and the ecotin and ecotin M84R/M85R concentration ranged from 0.1 nM to 50 nM. The data were fit to the equation derived for kinetics of reversible tight-binding inhibitors (Morrison (1969) *Biochim. Biophys. Acta* 185: 269–286, Williams and Morrison (1979) *Methods. Enzymol.* 63: 437–467), and the values for apparent K_i were determined.
The enzyme concentration was determined using an active site titration with MUGB. The catalytic activity of the protease domain was monitored using pNA substrates. Purified protease domain was tested for hydrolytic activity against tetrapeptide substrates of the form Suc-AAPX-pNA, which contained various amino acids at the P1 position (P1-Ala, Asp, Glu, Phe, Leu, Met, Lys, or Arg). The only substrates with detectable activity were those with P1-Lys or P1-Arg. The serine protease domain with the Ser^805Ala mutation had no detectable activity. […]

Binder | cleavage monitored by SDS-PAGE [1] | Ki [2] [pM]
B1 | This treatment results in the formation of a cleavage product that corresponds to the size of the active protease | 
B2 |  | 9.8
